Substrate: CCCCCCCCCCCC(=O)Oc1ccc([N+](=O)[O-])cc1
Experiment: p-nitrophenol release, Michaelis-Menten
Assay type: biochemical, Rhizomucor miehei

| Protein | Km (at the enzyme's optimal conditions (optimum 45 °C)) [µM] | Km (at the enzyme's optimal conditions (optimum 55 °C)) [µM] |
| --- | --- | --- |
| Rhizomucor miehei lipase (RML) (Rhizomucor miehei) (protein) VPIKRQSNSTVDSLPPLIPSRTSAPSSSPSTTDPEAPAMSRNGPLPSDVETKYGMALNATSYPDSVVQAMSIDGGIRAATSQEINELTYYTTLSANSYCRTVIPGATWDCIHCDATEDLKIIKTWSTLIYDTNAMVARGDSEKTIYIVFRGSSSIRNWIADLTFVPVSYPPVSGTKVHKGFLDSYGEVQNELVATVLDQFKQYPSYKVAVTGHSLGGATALLCALDLYQREEGLSSSNLFLYTQGQPRVGDPAFANYVVSTGIPYRRTVNERDIVPHLPPAAFGFLHAGEEYWITDNSPETVQVCTSDLETSDCSNSIVPFTSVLDHLSYFGINTGLCT | 92 | – |
| Rhizomucor miehei lipase (RML) (Rhizomucor miehei; E324I/N214M/N358M) (protein) VPIKRQSNSTVDSLPPLIPSRTSAPSSSPSTTDPEAPAMSRNGPLPSDVETKYGMALNATSYPDSVVQAMSIDGGIRAATSQEINELTYYTTLSANSYCRTVIPGATWDCIHCDATEDLKIIKTWSTLIYDTNAMVARGDSEKTIYIVFRGSSSIRNWIADLTFVPVSYPPVSGTKVHKGFLDSYGEVQMELVATVLDQFKQYPSYKVAVTGHSLGGATALLCALDLYQREEGLSSSNLFLYTQGQPRVGDPAFANYVVSTGIPYRRTVNERDIVPHLPPAAFGFLHAGEEYWITDNSPITVQVCTSDLETSDCSNSIVPFTSVLDHLSYFGIMTGLCT | – | 31.75 |

Source: publication PMC11727178, “Computer-Aided Design to Improve the Thermal Stability of Rhizomucor miehei Lipase” (Foods, 2024)
